Laboratory results reported in US12331110B2, “Monoclonal antibodies against endotrophin and the use thereof” (THE BOARD OF REGENTS OF THE UNIVERSITY OF TEXAS SYSTEM, priority 2018, dated 2025).

Columns and labels:
[1] = system: ETP transfected MCF7 cells; test: ETP transfected MCF7 tumor growth in nude mice; type: in vivo
Procedure: FIGS. 5A-C. Antibody effects on ETP-MCF7 cells in vivo. (FIG. 5A) ETP transfected MCF7 cells (2×10^6 cells) were implanted into nude mice. An estradiol pellet (0.72 mg) was implanted into nude mice. Then (i) 20 mg/kg ETPmAb4, (ii) 10 mg/kg ETPmAb4 with 10 mg/kg control IgG, (iii) 5 mg/kg ETPmAb4 with 15 mg/kg control IgG, (iv) 2 mg/kg ETPmAb4 with 18 mg/kg control IgG, and (v) 20 mg/kg control IgG (twice a week) were injected after 10-days implantation for 5-weeks. Tumor volume was determined by caliper measurement. Data was represented as mean±SD (n=5/group), and *** p<0.0001 by ANOVA followed by Newman-Keuls multiple comparison test. (FIG. 5B) Total RNA was prepared from tumor tissues from ETP transfected MCF7, ETPmAb4 treatment mice. The EMT markers genes Twist, Snail, Cdh2 and Cdh 1 were determined by qRT-PCR, then normalized to GAPDH. E-CAD immunofluorescence staining for tumor tissues from ETP transfected MCF7 and ETPmAb4 treatment tumor. (FIG. 5C) MCF7 and ETP transfected MCF7 cells (2×10^6 cells) were implanted into nude mice. An estradiol pellet (0.72 mg) was implanted into nude mice. Then 20 mg/kg of antibody ETPmAb4 (twice a week), and 2.5 mg/kg of cisplatin (once a week) were injected after 10-days implantation for 6-weeks. Tumor volume was determined by caliper measurement. Data was represented as mean±SD (n=5/group), and *** p<0.0001 by ANOVA followed by Newman-Keuls multiple comparison test.
Animal experiments. NU/NU nude female mice were purchased from Charles River (Crl: NU-Foxnlnu; Strain Code 088 (Homozygous)). Breast cancer cells (2×10^6 cells) were implanted by intraductal injection. All cell lines were mixed on ice with 1×PBS and Matrigel. Then 100 μL of mixture was injected into mice. Tumors were measured twice a week, beginning 10 days after injection, and tumor volume was calculated by length×(width) 2/2 (mm^3).
Analysis of Tumor Progression. Tumor onset was monitored twice weekly by palpation. Tumor sizes were measured using a digital caliper twice weekly and the volumes were calculated as length× width2)/2. Inguinal tumors were weighted to determine tumor burden. Animals were sacrificed when the tumor burden visibly affected the host, or when the tumors reached the IACUC pre-determined limit of 20 mm along one axis.
As a next step, whether the anti-endotrophin antibodies effectively curb the aggressive tumor growth observed in endotrophin overexpressing MCF-7 cells was examined. To boost the growth rate of the tumor cells, these assays were performed in the presence of estradiol pellets. Cells (2×10^6 cells) were injected into nude mice and their tumor growth was monitored over time, based on a twice weekly injection of either a control monoclonal preparation, or ETPmAb4; in all cases, a total of 20 mg/kg of antibody was used. The dose dependence was tested by either injecting 20 mg/kg of control antibody, 20 mg/kg of ETPmAb4, or a mixture of the two with decreasing levels of control antibody mixed with increasing levels of ETPmAb4.
To test this, MCF7 cells were used with or without endotrophin overexpression, and the cells were transplanted into nude mice, in the presence of estradiol pellets (FIG. 5C). […] As expected, MCF7 cells harboring an excess in endotrophin grew very aggressively (FIG. 5C; red line).

[2] = biological target: T1, recombinant endotrophin protein (Homo sapiens, UniProt P12111); test: Affinity measurement with BLI (Octet RED96); settings: Octet (96-Red), 1:1 binding model
T1 construct: the latter consisting of 77 amino acids at the carboxy-terminal of the COL6α3 chain; CD33 signal peptide (N, cleaved yes); His-tag with EK-cleavage site (N, cleaved yes); purchased Sino Biological, Beijing, China; host or cells: HEK293
T1 sequence (P12111 3101-3177): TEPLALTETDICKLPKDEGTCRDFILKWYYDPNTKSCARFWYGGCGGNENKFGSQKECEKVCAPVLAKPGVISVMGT
Procedure: FIGS. 12A-B. Kinetic sensorgrams for ETP-mAb4 (FIG. 12A) and each of the humanized antibodies (FIG. 12B). […]
For antibody affinity measurement, antibody (30 μg/mL) was loaded onto the protein A biosensors for 4 min. Following a short baseline in kinetics buffer, the loaded biosensors were exposed to a series of recombinant endotrophin protein at 0.1-200 nM and background subtraction was used to correct for sensor drifting. All experiments were performed with shaking at 1,000 rpm. Background wavelength shifts were measured from reference biosensors that were loaded only with antibody. Kinetic sensorgrams for each antibody are shown in FIGS. 12A&B. ForteBio's data analysis software was used to fit the data to a 1:1 binding model to extract an association rate and dissociation rate. The Kd was calculated using the ratio of koff/kon and the estimated values of […] for endotrophin ETP-mAb4 and 4 humanized ETP-hMab4 antibodies are listed in Table 4.

B1: ETP-mAb4: rabbit monoclonal anti-human endotrophin antibody selected for further study; VH SEQ ID NO: 125, VL SEQ ID NO: 126 (antibody, V domains shown)
VH: SSRVKESGGDLVKPGASLTLTCKASGFSFSSGYYICWVRQAPGKGLEWIACIYGGNNNPYYANWVNGRFTTSKTSSTTVTLQMTNLTGADTATYFCARKDINIGGAYELWGPGTLVTISS
VL: ELVMTQTPASVSEPVGGTVTINCQASQSISSSYLSWYQQKPGQPPKLLIYKASTLASGVPSRFKGSGSGTQFSLTISDLECADAATYYCQYSDWANSYGNAFGGGTEVVVK
- lesion growth, combination with cisplatinum ([1]; 20 mg/kg ETPmAb4 twice a week plus 2.5 mg/kg cisplatin once a week): lesion growth was reduced down to essentially baseline
- tumor growth at the highest dose ([1]; 20 mg/kg twice a week, estradiol pellet): almost completely curbing the aggressive tumor growth
- rate of tumor growth ([1]; 2-20 mg/kg twice a week, estradiol pellet, vs control IgG): significantly reduced in a dose-dependent fashion the rate of tumor growth over time
- EMT signature in tumor tissue (Twist, Snail, Cdh2, Cdh1 qPCR) ([1]; antibody-treated tumors): reduced EMT signature
- kdis [2]: 2.49 E−04 1/s
- kon [2]: 1.42 E+05 1/Ms
